Test results reported in a protein production outcome set (Wang et al. 2014).

Assay: label from the status in PepcDB records

Sequence	protein production
MKKKLFSPIWLLPIVALALGAWLGIKSIKESGVEIQIHFPSATGIDVGKTLVKYQGLTVGKVKDIGIDDDLKGVNVKVMMDYRAKPFLNKETLFWLVTPKASITGVEGLDALFSGNYIAIQPGKGNAATFFEAERQPPPMQIGSEGVMIELTADKLGSLDVGSPVFFRQIPVGSVVSYRLDGNARVIISAFIQEQYARLVKKNSHFWNVSGVKVDASLAGIKVNTESLASILAGGVSFSSDEKAAAAQNGDSFALYDSETSALGGVEVSLTMNDGNGIDKGTRIVYRGISVGSIQSKNLTTTGVTAIAKFEPEYANLLTSDGRFWLEGADISLSGIKNPERLLTGSVINFLPGTNANTALPSSFALQSSAPDLLQAKKRLLTITSAENMGLTAGAEVRYKQLPIGQVLAVKLTKDLSAVEYQLELQPEFASLVRSDSYFIPESALSVDASIEGVSVKTRDLATLTKGAVSLIPGSNNTPVAANARLSLFSSVEEAKQFFERQQRLYFTLTSQDGADVSQGSPIYYKKMQIGRVESVNWQSKTEDFAIKIAIDKQFQPLMQKPKVFWRNSALDVSASLAGIDVAVAPLQGALKGSISLGLLENPLADPTASLKLYENKQLALAQAQAIRLTLSASAKLAAKAAIRYQGHQVGEVTQVKLNADLNTLSATAYLYGEYADHFSSSDAEYHMVEAQISLAGIKAPETLITGPYIGVLPGKSKQKATQFQAKLVESSYANVAEDALKFTLEDSNLGSMKVGTPIFFRGLKVGQIDGYSLSSQGNSVLMQAHIEPQYRHLVNKTSQFWDASGIKVDVGIFSGAQIEAGSLETLLAGGINVATKETTQANNRLSQGAVITLQHKAQTEWQEWAPAQ	failed
MTLKLKDKNTMLNSEKMVASIEKQDLHHADKYLKKALNEDPAEVLVELAEYLESIGFLPQAQEIYEKVRFDFPEVNVNLAQIAAEDGNIEEAFLYLDAIPEESEDYLSALIVKADLYQMEGLTDVARDKLLEASQLSDDSLIIFGLAEMEFELGNFEQAIQYYAKLDNRDLLATTGVSTYERIGKSYASLGKFEAAREFLEKAIEIEYNDTIAFELATLLYDQEEYQKANFYFKQIETMSSDFEGYEYNYALSLHAEHRTEEALRMTQQGISKNAFDVQLLLLASQLSYELHDTQSAESYLKQALPLAEDNDEIVLRLSALYLEEERFDDLVALADYEVDSVLARWNIARAYQALDDEEEAFQIYQDLSKDLADNPEFLQDYAYILREFGYRDQARVTAEKYLALVPDDVNMQTFLEDY	failed
MQTFVLATNSETVSQTLCSYLEGVLDLEDSVYAVNSQPGGDRTPPDAVADGKAALEVVSDRLGDQVSVETYQIIRGNSPADDIFDIAAEVDADELVIGVRKRSQTDRLIFGSVAQDIMRQSDYPMRVVPRD	failed
SELSQLLNEIRANYEKILTRNQIETVLSTRIQLEEDISKKMDKDEEALKAAQAELKEARRQWHHLQVEIESLHAVERGLENSLHASEQHYQMQLQDLETVIEGLEKELQEVRRGIEKQLQEHEMLLNTKMRLEQEIATYRHLLEKEEIRYYGCIQGGKKDKKPTTSRVGFVLPSAIINEISFTTKVPQKYENENVETVTKQAILNGSIVKESTEAHGTIQTEKVDEVIKEWEGSFFKDNPRLRKKSVSLRFDLHLAATDEGCLETKQDNLPDIEVRLIMRRSCSIPSIKPPSTAN	not failed
MNLCGDSEILKEDDNTKNFARKNPDPYPPTGTSLVYLDHLELCLCSTEWWNLLTCILDDAPKLRVLKLKLYRKHCVEYNESMEPWKQPDYVPICLSSYLEIFEWRQYNGEEQEREVAKYILENASRLKKAIFYLESAEKHGILKELECMARGSKKCQLVFD	failed
MKNSNRLIYTDNLEESLEETASLFEHHIKFYTEIIEKDKKVIKTFNKDFKIEHAKEVISKAHLKHSELNAFLIAAPSYGIEAQNALLKILEEPPNNVCFIMFAKSQNHVLATIKSRLIKEDKRQKIPLKPLDLDLSKLDLKDIYAFLKNLDKENFDSRENQRERIESLLESVNRHKIPLNEQELQAFDLAIKANSSYYKLSYNLLPLLLSLLSKKKTP	failed
MSKLFPGEVFANTADFDTGIRQLLPRYDEMLEVICRCLPLTSRRILDLGCGTGELSLKILQRCPDAQVIALDYSPRMLKFAQNKIVASGYKERWTGLQADFGDWAINPETLNIGNEFDACVSSLAIHHLYDEMKLQLFQRIAASLTPNGCFWNADPILPESPTLAEIYQAAREEWVSEQGSNFTEVRAKVGDSSPQGYSNPDQLATLDTHLQMLTKSGFTTVAVPWKYYGLAVFGGWVKLEHHHHHH	not failed
MSINLQLETPRLLLREFQNSDKVAFAAYRSDPGTAKYQSWDTPYSEAQAEAFIESLQHLTSSILGEWYQLAIELKSTRQIIGDCAFCILAEDGKQGEIGFTLARKYQGNGYGTEAVIFLLNYLFNHLNLHRVRANCDPENLASIKLLERVGMRLEGRFIKSLWFKNNWVDEMWFAILQDEFTAVNV	failed
HSGEDLPMVAPGNVRVNVVNSTLAEVHWDPVPLKSIRGHLQGYRIYYWKTQSSSKRNRRHIEKKILTFQGSKTHGMLPGLEPFSHYTLNVRVVNGKGEGPASPDRVFNTPEG	not failed
YENFIIAGHKEPDGDCIGSCLAMSFFLKRKNKNCILMSAGPFKRTEIKEYEHLFTDKLKISDKINPKTTGLIILDCSNFDRVGEIAELISGFNYIIIDHHATNTEKSDTSLIMPEAPSTTYLIQSIIEEIGEKLTKEEADALFFGLCTDTGFFRHLDAGSAEVFAHASRLIEAG	failed
MSQRVSPTLIGLFVVGALALGVVGVGAFGSGQFFEQRTTFISYFDESVNGLDVGAPVKFKGVPIGEVTDINLRVDLENETFQVPVQYAINLDPVTDTTGARLNLDDPTLLRDQIEDGLRAQLQLESIVTGKLYVELTYISDPDSAVYAQGPPSRLSIPTELSPLAKLGEGASGLVTNLRQFDVTQINENLVTFLVNANDKLEALDAEAINRSALSTIESVRKVVESKEVRTALQDMPKATERLRATIKDAQALIQRLDRGVEPTADELEKTSRQLRATLKRMRRTMDEVDQTLSPNSGIGYQMNEALSNLSEATEALRVLVQSLERNPSMFLRGREEPPPSNQQ	failed
MPSCAVEGNPSVHTPHPPRPLYPPRPAMPPGESDESLGGQLRGRPEGAAPHPVALLMARHWESTYDYAVICLASSANVASIVTAGAFQQVVGRLMRSGSAAAVRPALLVAVRDTVREWSAEERISGVLPELRKPAGGRGMRAAKSLTPENRVLAERSFLTLPGLSRCLLWHTEVEAESISVPAGLSGIGTDTATAALEQAREQFREGCVRAHRELAPTKECRLYNRLLDVPIRRGGALLPDVQRHLLGCRFCRNAAEQLSHFEGALGGLLAEAVLGWGARRYLESRPGRTPYGGRARGVSGSGGRPGSGGRHRLLAQIPAPGRRTPVGERGARAVLTGVGIASAAVLATFLVTGLWSNDDGNVDPTASTSASGGRTTVLPTPGSQIPPTVSSPPDSAGLPTTPRQTRLRNLAADLCLDVRGEAKAGAGTKLAVCSSAWTQQWTYEKDGLLRSVADPELCLDSGAVDGVAELGRCVAESSAHGGDVRYDLTVQGEVLSRRKGSLAVTPGNTDPDADIVVKVRDGSDKQRWLTDSPSDQPESLSIAGTTPPSATPATDAPAATPAPTPVPASPGTRLTDAPVASSAPPSENYGERRSLTVTDTSTPEPVLPLTVHLPDLLGEIGVGL	failed
MAPIFRNYRFAIGAFAVIMLILLIKTSSIGPPSIARTVTPNASIPKTPEDISILPVNDEPGYLQDSKTEQNYPELADAVKSQTSQTCSEEHKYVIMIDAGSTGSRVHIYKFDVCTSPPTLLDEKFDMLEPGLSSFDTDSVGAANSLDPLLKVAMNYVPIKARSCTPVAVKATAGLRLLGDAKSSKILSAVRDHLEKDYPFPVVEGDGVSIMGGDEEGVFAWITTNYLLGNIGANGPKLPTAAVFDLGGGSTQIVFEPTFPINEKMVDGEHKFDLKFGDENYTLYQFSHLGYGLKEGRNKVNSVLVENALKDGKILKGDNTKTHQLSSPCLPPKVNATNEKVTLESKETYTIDFIGPDEPSGAQCRFLTDEILNKDAQCQSPPCSFNGVHQPSLVRTFKESNDIYIFSYFYDRTRPLGMPLSFTLNELNDLARIVCKGEETWNSVFSGIAGSLDELESDSHFCLDLSFQVSLLHTGYDIPLQRELRTGKKIANKEIGWCLGASLPLLKADNWKCKIQSA	failed
MRKVRPEELPALLEEGVLVVDVRPADRRSTPLPFAAEWVPLEKIQKGEHGLPRRPLLLVCEKGLLSQVAALYLEAEGYEAMSLEGGLQALTQGK	not failed
MSQTDELTGTANRRFVFAKLALQVEQVSKGLEAPFCLCTLDIDFFKQINDRFGHKCGDAVLRDFVGIAHSVIRRVDCFGRIGGEEFMLILPRSSIAEGREIVERLLQKVRLSRPLSEFPDFSYSCSAGMTVFRMMENADDVFMRADQALYAAKEKGRDRLLAVTLEHHHHHH	failed
QSKTATVFLHGYNGGAYSTNYLIRKAEKAGAAQKALVVHVYKNGVMAFKGYWQKSIKNPMVQVVFQDNHASQKAQIYWLHQVLVQLKAKYGVKAYNAVGHSLGANDIVNQALKYGHDKRLPTLNKIVTIGGPFDGLTGFLSTQTEATVRRLDVKPSRFTKHFSEMLKYRHNFPDNVKLLNVYGDTNTGYNNDGFVGVASARSIRYLLRGKLTQYQEAFYSGEQAAHCALNQNPSVAHKMIAFLW	failed
MRVALTIAGSDSGGGAGVQADLKVFFRFGVYGTSALTLVTAQNTLGVQRVHLLPPEVVYAQIESVAQDFPLHAAKTGALGDAAIVEAVAEAVRRFGVRPLVVDPVMVAKSGDPLLAKEAAAALKERLFPLADLVTPNRLEAEALLGRPIRTLKEAEEAAKALLALGPKAVLLKGGHLEGEEAVDLLATRGGVLRFSAPRVHTRNTHGTGCTLSAAIAALLAKGRPLAEAVAEAKAYLTRALKTAPSLGHGHGPLDHWA	not failed
PFYTQGDSLTSEDHLDDTWVTVFGFPQASASYILLQFAQYGNILKHVMSNTGNWMHIRYQSKLQARKALSKDGRIFGESIMIGVKPCIDKNVMENSDRGVLSSPSL	not failed
MRSVRKRTVLVSTLLALVLTQVARADDKGSHPAVIGDVHFKVECNATAQAKFNVAVAYYHSFQWQRVIATADDVLKVDPTCGMAHWVKALAMLDNPFAWPVTLSEKAIAEGPVLLDAARKAGLKTQRERDYVDALAIFFKDLNTTNYRERAESFEKAMAQLAQQNADDSEATVLYALILSRNFDPTDKTYRNQLHAAELLEPIFAREPNHPGVAHYLIHSYDYPPLAKRGIDAARKYAKIAPDTPHSLHMPSHIFTLTGFWQESIDTNRRAAEMADDSITHDGHHASDYMVYAHLQLGQDLAARKIMEQEQVRHGIDMIGVAYPYAAIPARIALERRAWREAADLPLYARDTYPWKKYPQAEAVNAFARGVGSAMSGEPAKANFEAKRLIKLRDAATAMKLNYWADQIDIQAEVVRGLADFAEGKRDEGIAILHRAAEREDASAKNVVTPGPVVPAREMLATILERDRKPADALAEFEKVLEQHPNRYRTIAGAAQNAKQAGNEQKADHYAELLLKLAEHADSPRPEIAEAKSMLGM	failed
MKRLLFTVISLLFSVSVLAAESSADRIDLTSSTVGYAAIVIFILAYILVMGEEKLHMRKSKPVLVAAGVIWILIGFVYTGDNAVLAEEAFRENLLKFAELMLFLLVAMTYINALEERRLFDALSAWLMKKGFTYRKLFWITGFLAFFISPIADNLTTALLMSAVVMKVAEGNKKFVALCCSSIVIAVNAAGAFSPFGDITTLMVWQSGKVEFTEFLQLFVPALVNYLIPAVIMSFFIENKSPTTLHTEVELKRGALRITFLFLLTVATAVACHIWLHLPPVLGMMMGLGYLQFFGYFLRMTLPGSLARKRAMAAREGDQKRLQQLGGVVPFDVFSRVSRAEWDTLLFFYGIVLCVGGLGFMGYLGLLSESLYGGLDPTIANSILGVVSALVDNIPVMFAVLSMDPEMSTGHWLLITLACCTGGSLLSIGSASGVALMGQARGYYTFMSHLKWTPVIAIGYAASILLHLWLNQATFLS	failed
